The Kd is the concentration at which binding is half-saturated.

The target of the data set is CD8a extracellular domain (Homo sapiens, UniProt P01732 22-182). Description: BLI. In general terms: In BLI a coated tip is dipped into the sample, and binding shifts an interference pattern.
CD8a extracellular domain, sequence (P01732 22-182): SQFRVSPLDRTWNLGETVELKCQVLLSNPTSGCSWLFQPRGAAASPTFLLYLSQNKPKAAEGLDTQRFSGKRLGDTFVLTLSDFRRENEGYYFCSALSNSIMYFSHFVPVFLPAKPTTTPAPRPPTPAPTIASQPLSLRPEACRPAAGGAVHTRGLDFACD

B1: A8 (structured_DNA)
DNA: ATCCAGAGTGACGCAGCAGCTCGATCGTATAGCCGTGACGCAGCTTGAAATGGGATCGCGTCCACAGTTTTGGACACGGTGGCTTAGT
As to B1, the Kd amounted to 5.59 ± 0.11 nM.

B2: A3 (structured_DNA)
DNA: ATCCAGAGTGACGCAGCAACAGAGGTGTAGAAGTACACGTGAACAAGCTTGAAATTGTCTCTGACAGAGGTGGACACGGTGGCTTAGT
For the molecule B2, binding was characterised by a dissociation constant (Kd) of 14.7 ± 0.1 nM.

The values above are taken from publication PMC6783348.
